Test results from the nanobody polyreactivity screen of Harvey et al. (2022).

Assay: yeast display, Sf9 membrane polyspecificity reagent, FACS + sequencing; frameworks hold sequencing errors
Outline: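 Nanobodies came from a synthetic yeast display library in Saccharomyces cerevisiae BJ5465, induced with galactose for 36–48 hours and stained for 1 hour at 4 °C with 10% biotinylated, detergent-solubilized Sf9 membrane reagent. Cells were enriched on streptavidin microbeads and then FACS-sorted, with low and high (top ~1%) gates set on anti-HA fluorescence for expression and streptavidin fluorescence for reagent binding. Each polyreactivity label reflects the gate a clone came from. Genes were amplified by colony PCR, sequenced by MiSeq 2 × 250 and filtered by CDR length.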

QVQLVESGGGLVQAGGSLRLSCAPSGITFWVYVMGWYRQAPGKEREFVADISSGAGTTYYADSVKGRFTISRDNAKNTVYLQMNSLKPEDTAVYYCAARRWWPQWYDYWGQGTQVTVSS
polyreactivity (PSR sort gate): high polyreactivity

QVQLVESGGGLVQAGGSLRLSCAPSGITFYGNDMGWYRQAPGKERELVAAISSGGITNYADSVKGRFTISRDNAKNSVYLQMNSLKPEDTAVYYCAKDLLYYHITPDGYTWYLPEDSWGQGTQVTVSS
polyreactivity (PSR sort gate): low polyreactivity

QVQLVESGGGLVQAGGSLRLSCAPSGRIFAGYAMGWYRQAHGKERELVAAISWRGTSTYYADSVKGRFTISRDNAKNTVYLQMNSLKPEDTAVYYCAARYTKGMYYWGQGTQVTVSS
polyreactivity (PSR sort gate): high polyreactivity

QVQLVESGGGLVQAGGSLRLSCAPSGRIFGAYGMGWYRQAPGKERELVAAISNGGRTSYADSVKGRFTISRDNAKNTVYLQLNSVKPEDTAVYYCAAVYWPWFGAYDYWGHGTQVTVSS
polyreactivity (PSR sort gate): high polyreactivity

QVQLVESGGGLVQAGGSLRLSCAPSGRIFRYNAMGWYRQAPGKERELVAAITSGGSTNYADSVKGRFTISRDNAKNTVYLQMNRLKPEDTAVYYCAVTGYRPYAYRRRYPYDYWGQGTQVTVSS
polyreactivity (PSR sort gate): high polyreactivity

QVQLVESGGGLVQAGGSLRLSCAPSGRNFTYYDMGRYRQAPGKEREFVAVISDNDSSTYADSVKGRFTISPDNAKNTVYLQMNRLKPEDTAVYYCNAYRQYRSWRYDYWGQGTQVTVSS
polyreactivity (PSR sort gate): high polyreactivity

QVQLVESGGGLVQAGGSLRLSCAPSGRTFGYNAMGWYRQAPGKESELVAGISSSDASTYYADSVKGRFTISRDNAKNTVYLQMNSLKPEDTAVYYCAATFGFFYYQYDYWGQGTQVTVSS
polyreactivity (PSR sort gate): low polyreactivity

QVQLVESGGGLVQAGGSLRLSCAPSGRTFGYNGRGWSRQEPGKESELVAAINSGGNTNYADSVKGRFTISRDYAKNTVYLQMNSLKPEDTAVYYCAKYGTLFEPVPNEYDYWGQGTQVTVSS
polyreactivity (PSR sort gate): low polyreactivity

QVQLVESGGGLVQAGGSLRLSCAPSGRTFSVHAMGWYRPARGKGRELVAAISWDGGSTYYADSVKGRFTISRDNANNTVYLQMNSLKPEETAVYYCNKDLYYAYDYWGQGTQVTVSS
polyreactivity (PSR sort gate): low polyreactivity

QVQLVESGGGLVQAGGSLRLSCAPSGRTFYLNAMGWYRPAPGKERELVAAIRFSGGSTYYADSVKGRFTISRDNAKNTVYLQMNSLKPEDTAVYYCNAGPYLSLYPTVSEYGYWGQGTQVTVSS
polyreactivity (PSR sort gate): low polyreactivity

QVQLVESGGGLVQAGGSLRLSCAPSGRTIYHYAMGWYRQAPGKERELVAAITWSGGSTYYADSVKGRVTISRDNAKKTVYLQMNSLKPEDTAVYYWARYPARYGGYYDYDYWGQGTQVTVSS
polyreactivity (PSR sort gate): high polyreactivity

QVQLVESGGGLVQAGGSLRLSCAPSGSIFDVNAMGWYRQSPGKESELVAAISDSGGSTYYADSVKGRFTISRDNAKNTVYLQMNSLKPEDTAVYYCNADWSWYNYYEFDYWGQGTQVTVSS
polyreactivity (PSR sort gate): low polyreactivity

QVQLVESGGGLVQAGGSLRLSCAPSGSIFFPYAIGWYRQAPGKESELVAAISYSGTSTYYADSVKGRFTISRDNAKNTVYLQMNSLIPEDTAVYYCAAEVIGRYIEYYYWGQGTQVTVSS
polyreactivity (PSR sort gate): high polyreactivity

QVQLVESGGGLVQAGGSLRLSCAPSGSIFVYYAMGWYIQAPGKERELVAAITTSGGSTYYADSVKGRFTISRDNAKNTVYLQMNSLKPEDTAVYYCAAELLAWYWSFSVPCPYDYWGQGTQVTVSS
polyreactivity (PSR sort gate): low polyreactivity

QVQLVESGGGLVQAGGSLRLSCAPSGSIYTPYAMGWYRPAPGKLRELVADISRSGSTNYADSVKGRFTISLDNAKKTVYLQMNSLKPEDTAVYYCNADFWWHWGTSYDYWGQGTQVTVSS
polyreactivity (PSR sort gate): high polyreactivity

QVQLVESGGGLVQAGGSLRLSCAPSGSTFDRNDMGWYRQAPGKERELVAAISRVSSTNYADSVKVRFTISRDNAKNTVYLQMNSLKPADTAVYYCAADRAGSIMNYWGQGTQETVSS
polyreactivity (PSR sort gate): low polyreactivity

QVQLVESGGGLVQAGGSLRLSCAPSGSTFFLYVMGWYRQAPGKEREWVAAITSGGRTYYADSVKGRFTISRDNAKNTVYLQMNSLKREDTAVYYCAADVRRVRVGKYDYWGQGPQVTVSS
polyreactivity (PSR sort gate): high polyreactivity

QVQLVESGGGLVQAGGSLRLSCAPSGSTFNNYALGGYRQAPGKERELVAAIRSIGGSTYYADSVKGRFTISRDNAKNTVYLQMNSLKPEDTAVYYCAADYFYLKWYEYWGQGTQVTVSS
polyreactivity (PSR sort gate): high polyreactivity

QVQLVESGGGLVQAGGSLRLSCAPSGSTLTSNAMGWYRQAPGKERELVAASRSGGSTNYADSVKGRFTISRDNAKNTVYLQMNSLKPEDTAVYYCNKDFLWQGYGYSRVSYDYWGQGTQVTVSS
polyreactivity (PSR sort gate): low polyreactivity

QVQLVESGGGLVQAGGSLRLSCASGSTYVYAMGWYRQAPGKERELVATISSTGSTYYADSVKGRFTISRDNAKNTVYLQMNSLKQEDTAVYYCAADVWNNGWIYGSYDEYDYWGQGTQVTVSS
polyreactivity (PSR sort gate): high polyreactivity

QVQLVESGGGLVQAGGSLRLSCASSGIIFYPNAMGWYRQAPAKERELVAAITSDGSTYYADSVKGRFTISRDNAMNTVYLQMNRLKPEDTAVYYCAAWEDYGYDYWGQGTQVTVSS
polyreactivity (PSR sort gate): low polyreactivity

QVQLVESGGGLVQAGGSLRLSCASSGIILYAYAKGWYRQAPGKERELVAAISRSGGRTYYADSVKGRFTISRDKAKNTVYLQMNSLKPEDTAVYYCATVTRYPDGHRFDYWGQGTQVTVSS
polyreactivity (PSR sort gate): high polyreactivity

QVQLVESGGGLVQAGGSLRLSCASSGITFPFYTMGWYRQAPGKERELVAAISSRGTSTYYADSVKGRFTISRDNAKNTVYLQMNSLKPEDTAVYYCKARATPQRAYDSWGQGTQVTVSS
polyreactivity (PSR sort gate): high polyreactivity

QVQLVESGGGLVQAGGSLRLSCASSGITFVRYAMAWYRPAPGKERELVAVISRGGITNYADSVKGRFTISRDNAKNTVYFQMNSLKPEDTGVYYCNREKRIRSSGGLYYWGQGTQVSVSS
polyreactivity (PSR sort gate): high polyreactivity

QVQLVESGGGLVQAGGSLRLSCASSGLIFGANAMGWYRQAPVKARELVAVITSDGSTDYADSVKGRFIISRDNAKNTVYLQMNSLKPEDTAVYYCATTFYLIFGYTYSAYYYWGHGTQVTVSS
polyreactivity (PSR sort gate): high polyreactivity

QVQLVESGGGLVQAGGSLRLSCASSGLIFGRNVMGWYRQAPGKERELVAAISWSGGRTYYADSVKGRFTISRDNAKNTVYLQMNSLKPEDTAVYYCAADDGPGFDYWGQGTQVTVSS
polyreactivity (PSR sort gate): high polyreactivity

QVQLVESGGGLVQAGGSLRLSCASSGLIFSIYAMGWYRQAPGKERELVAAIRWSGGSTYYADSVKGRFTISRDNAKNTVYLQMNSLKPEDTAVYYCNADITVYVRIYQYNYCGQGTQVTVSS
polyreactivity (PSR sort gate): low polyreactivity

QVQLVESGGGLVQAGGSLRLSCASSGLIFYKNAMGWYRQAPGKVRELVAAISWRDGRTYYADSVKGRFTISRDNAKNTVYLQMNSLKPEDTAVYYCNAVRGITYYDYFYWGQGTQVTVSS
polyreactivity (PSR sort gate): high polyreactivity

QVQLVESGGGLVQAGGSLRLSCASSGLTFKQYAMVWYRQAPGKERELVAAITVSGGDTYYADSVKGRFTISRDNAKNTVYLQMNSLKPEDTAVYYCAAEHFFWGYDYWGQGTQVTVSS
polyreactivity (PSR sort gate): high polyreactivity

QVQLVESGGGLVQAGGSLRLSCASSGLTFRYNAMGWYRQAPGKERELVAAIRTSGGSTYYADSVKGRFTISRDNAKNTVYLQMNSLKPEDTAVYYCAARSKSYYGGYARGYWGQGTQVTVSS
polyreactivity (PSR sort gate): high polyreactivity

QVQLVESGGGLVQAGGSLRLSCASSGNTFTVNAMGWYRQAPGKERELVAAINYSGGSTYYADSVKGRFTISRDNAKNTVYLQMNSLKPEDTAVYYCAASPDELLYEMYYWGQGTQVTVSS
polyreactivity (PSR sort gate): low polyreactivity

QVQLVESGGGLVQAGGSLRLSCASSGNTFYGYAMGWYRQAPGKERELVASITLSGDSTYYADSVKGRFTISRDNAKNTVYLQMNSLKPEDTAVYYCAGVYTYPLGYYHYTYDYWGQGTQVTVSS
polyreactivity (PSR sort gate): low polyreactivity

QVQLVESGGGLVQAGGSLRLSCASSGRIFKYYSMGCYRQSPGKVRELVASISWSGGSTYYADSVKGRFTISRDNAKNTVYLQMNSLKPEDTAVYYCAAYVTYLRYRSNIAYYGYDYWGQGTQVTVSS
polyreactivity (PSR sort gate): high polyreactivity

QVQLVESGGGLVQAGGSLRLSCASSGRIFRYYDMGWYRQAPGKERELVASITSGGSTNYADSVKGRFTISRDNAKNTVYLQMNSLKPEDTAVYYCAARWGYARANGYDYWGQGTQVTVSS
polyreactivity (PSR sort gate): high polyreactivity

QVQLVESGGGLVQAGGSLRLSCASSGRTFAGNVMGWYRQAPGKERELVAAITGRGGSTYYADSVKGRFTISRDNAKNTVYLQMNSLKPEDTAVYYCNALTWPRYYYWGQGTQVTVSS
polyreactivity (PSR sort gate): high polyreactivity

QVQLVESGGGLVQAGGSLRLSCASSGRTFALYAMGWYRKAPGKERELVAGITFRGGSTYYADSVKGRFTISRDNAKKTVYLQMISQKPEDNAVYYCAAERWRWYYSWNMDYWGQCTQVTVSS
polyreactivity (PSR sort gate): high polyreactivity

QVQLVESGGGLVQAGGSLRLSCASSGRTFLHNAMGWYRQAPGKERELVAAISSRGGSTYYADSVKGRFTISRDNAKNTVYLQMNSLKPEDTAVYYCAADLVVYRYDYWGQGTQVTVSS
polyreactivity (PSR sort gate): high polyreactivity

QVQLVESGGGLVQAGGSLRLSCASSGRTFPGNAMGWYRQAPGKERELVATISSGGTTNYADSVKGRFTISRDNAKNTVYLQMNSLKPDDTAFYYCATDTYHHKADYEYWGQGTQVTLSS
polyreactivity (PSR sort gate): low polyreactivity

QVQLVESGGGLVQAGGSLRLSCASSGRTFTKYAMGWYRHPPGKESELVAAISRSGGSTYYADSVKGRFTISRDNAKNTVYLQMNSLKPEDTAVYYWAARGQYRYSFGDYSWGQGTQVTVSS
polyreactivity (PSR sort gate): high polyreactivity

QVQLVESGGGLVQAGGSLRLSCASSGRTLGGYAMGWYRQAPGKERELVAAITRRGGSTYYADSVKGRFTISRDNAKNTVYLLMNSLKTEDTAVYYCAARWYARSLTRFNYWGEGTQVTVSS
polyreactivity (PSR sort gate): high polyreactivity

QVQLVESGGGLVQAGGSLRLSCASSGSIFVLNAMGWYRQAPVKESELVAGITYSGGSTYYADSVKGRFTISRDNAKNTVYLQMNSLKPEDTAVYYWSAPVRRYPYPGRFYYWGQGTQVTVSS
polyreactivity (PSR sort gate): low polyreactivity

QVQLVESGGGLVQAGGSLRLSCASSGSIFYPYAMGWYRPAPGKERELVAAISSGGTTYYADSVKGRFTISRDNAKNTVYLQMNSLKPEDTAVYYCAAGFYLRAVWMDYWGQGTQVTVSS
polyreactivity (PSR sort gate): high polyreactivity

QVQLVESGGGLVQAGGSLRLSCASSGSIFYYTEIGWYRQAPGKERELVAAISWGDGITYYADSVKGRFTISRDYAKNTVSLLMNSLKPEDTAFYYCAVDYYYLPFDYWGQGTQGTVSS
polyreactivity (PSR sort gate): high polyreactivity
